Measured values from the nanobody polyreactivity screen of Harvey et al. (2022).

Test: yeast display, Sf9 membrane polyspecificity reagent, FACS + sequencing; frameworks hold sequencing errors
Method in brief: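 Polyreactivity labels are assigned by the sorting gate from which each nanobody was recovered. The gates were low and high (top ~1%), set on anti-HA fluorescence for expression and streptavidin fluorescence for reagent binding. Before sorting, galactose-induced (36–48 hours) yeast display cells were stained for 1 hour at 4 °C with 10% biotinylated, detergent-solubilized Sf9 membrane reagent.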

Sequence	polyreactivity (PSR sort gate)
QYQLVESGGGLVQAGGSLRLSCAASGFIFSTNAMGWYRQAPGKERELVAAISRRGGNTYYADSLKGRFTISRDNAKNTVYLQMNSLKPEDTAVYYCAKRGVYGYRYYYWGQGTQVTVSS	high polyreactivity
QYQLVESGGGLVQAGRTLRLSWAASGRIFVRYVMGCYRQAPVKERELVAAISSSGGSTYYADSVKGRFTISRDNAKNWVYLQIYSLKPEDTAVYYCATDFMDKYILPYDYWGQGTQVTVSS	low polyreactivity
